B1: POU domain, class 3, transcription factor 1, residues 247 to 324; numbered along this chain, Q03052 (parent)
chain: EDAPSSDDLEQFAKQFKQRRIKLGFTQADVGLALGTLYGNVFSQTTICRFEALQLSFKNMCKLKPLLNKWLEETDSSS

Variants of: B1
Assay: abundance fitness (aPCA) (normalised: wild type 0, dead -1); higher = more abundant; growth selection in yeast, the domain comes from the species named
Details: Homo sapiens

Abundance fitness: each site, then its substitutions
L53: V -0.055 | T -0.336 | Y -0.112 | Q -0.009 | A 0.042 | R -0.052 | S 0.051 | E -0.494 | I 0.064 | D -0.646 | P -0.759 | N 0.319 | F -0.256 | W -0.478 | H -0.111 | K -0.135
L67: E -0.951 | P -0.613 | D -0.167 | Q -1.2 | V -0.563 | F -0.698 | C -0.427 | N -0.553 | H -0.04 | I -0.321 | W -0.81 | T -0.711 | R -0.716 | A -0.562 | S -0.829 | M -0.084
W70: M -0.756 | C -0.762 | G -0.687 | Y -0.296 | Q -0.881 | I -0.707 | R -0.679 | T -0.595 | F 0.086 | P -0.93 | K -0.756 | A -0.689 | L -0.549 | H -0.374 | S -0.348 | D -0.485 | V -0.58 | E -0.753
E51: L -1.08 | H -0.98 | K -0.414 | N -0.461 | S -0.723 | Q -0.686 | I -0.818 | P -0.781 | T -0.668 | F -0.756 | V -0.525 | G -0.251 | Y -0.899 | R -0.501 | M -0.503
P65: V -0.113 | N -0.266 | H -0.173 | E -0.193 | A -0.241 | C -0.139 | L -0.284 | F -0.175 | M -0.332 | Q -0.451 | Y -0.158 | T -0.246 | K -0.156 | S -0.179 | G -0.167 | R -0.205 | D -0.053 | W -0.389
N59: I -0.197 | W -0.223 | A 0.08 | T -0.128 | L -0.074 | M 0.04 | V -0.031 | D 0.193 | R -0.017 | F -0.62 | G -0.04 | E 0.132 | S -0.084 | Q -0.025 | C -0.198 | K 0.042 | H 0.096
L71: E -0.63 | A -0.369 | C -0.712 | D -0.711 | G -0.851 | F -0.82
K69: R -0.058 | W -0.671 | T -0.251 | Q -0.02 | D -0.19 | G -0.119 | N -0.249 | V -0.559 | H -0.254 | P -0.662 | I 0.102 | C -0.361 | M -0.144 | E -0.342 | Y -0.159 | A -0.161
A52: Q 0.021 | R -0.001 | W -0.728 | H -0.141 | D 0.041 | L -0.275 | G -0.156 | S 0.036 | P -0.929 | C -0.362 | M -0.341 | K 0.163 | I -0.56 | V -1.02 | N 0.23
C61: D -0.96 | H -0.357 | R -0.065 | Q 0.017 | T -0.384 | V 0.045 | K -0.043 | W -0.148 | L -0.048 | Y -0.164 | N -0.24 | P -0.988 | F -0.538 | M -0.036 | I -0.134 | S -0.212 | A -0.001 | E -0.078
K62: P -0.882 | G -0.365 | M -0.075 | E -0.095 | R -0.15 | D -0.268 | W -0.449 | Y 0.035 | Q -0.184 | T -0.058 | N 0.06 | C -0.224 | F -0.278 | H 0.03 | L -0.119
K58: F -0.433 | C -0.53 | M -0.024 | E 0.031 | L -0.347 | P 0.13 | R -0.142 | A -0.096 | G -0.074 | V -0.272 | T 0.021 | D -0.185 | S -0.152 | H -0.07 | W -0.303 | Q -0.012 | I -0.045
F57: S -0.152 | C -0.394 | T -0.047 | Y 0.37 | V -0.144 | G -0.275 | K 0.005 | P -0.014 | A -0.142 | Q 0.015 | R -0.012 | M -0.048 | L 0.003 | I -0.273 | W -0.127 | H 0.031 | D -0.063
N68: I -0.028 | L 0.038 | R -0.086 | T 0.145 | A 0.029 | V -0.008 | E 0.082 | F -0.175 | M 0.042 | K 0.007 | D -0.071 | Q 0.011 | W -0.118 | P -0.763 | H 0.108 | S 0.02 | G -0.049 | Y -0.162
K64: Y -0.564 | D -0.653 | Q -0.009 | A -0.199 | G -0.911 | P -0.643 | L -0.511 | N -0.334 | S -0.405 | H -0.126 | I -0.814 | C -0.38 | T -0.401 | R 0.002 | E -0.564 | F -0.562 | M -0.042 | V -0.164
L63: R -0.766 | C -0.736 | N -0.117 | M -0.11 | G -0.643 | W -0.605 | P -0.769 | Y -0.368 | D -0.297 | F -0.148 | K -0.887 | S -0.791 | E -0.436 | T -0.582 | V -0.315
L66: Y 0.053 | P -0.644 | W -0.33 | E -0.936 | G -0.78 | S -0.767 | K -0.299 | Q -0.4 | A -0.226 | V -0.18 | F -0.031 | I 0.035 | D -0.822 | R -0.504 | M 0.162
S56: H -0.724 | T -0.287 | G -0.198 | F -0.719 | A -0.472 | D 0.031 | L -0.88 | P 0.09 | K -0.309 | V -0.945 | Y -0.745 | R -0.501 | Q -0.577 | E -0.31 | M -0.818 | C -0.439 | I -0.717
Q54: A -0.089 | P -0.62 | R -0.195 | I -0.316 | K -0.098 | F -0.858 | C -0.441 | N -0.187 | T -0.145 | H -0.035 | W -0.669 | L -0.376 | V -0.497 | E 0.011
L55: F -0.311 | H -0.359 | W -0.764 | Y -0.46 | V -0.45 | D -0.479 | S -0.323 | M -0.132 | T -0.746 | K -0.535 | G -0.514 | C -0.064 | N -0.2 | Q -0.645 | E -0.438 | A -0.54 | P -0.867
M60: P -1.18 | G -0.673 | C -0.604 | E -0.948 | K -0.09 | Q -1.05 | L -0.256 | T -0.396 | W -0.826 | S -0.448 | V -0.701 | I -0.811 | R -0.826 | N 0.011 | Y 0.109 | A -0.244
